Data from patent US8642729B2, “Opiorphin peptide derivatives as potent inhibitors of enkephalin-degrading ectopeptidases” (Institut Pasteur, priority 2008, dated 2014).
One block for each molecule: values may come before it. Non-standard residues stand in square brackets, D forms with d. No end group written: not given here. 12Ado = NCCCCCCCCCCCC(=O)O; Ahx = NCCCCCC(=O)O

Assays:
[1] = biological target: T1, recombinant human AP-N (Homo sapiens, UniProt P15144); assay: AP-N-ectopeptidase activity, Ala-Mca substrate; format: biochemical; conditions: for inhibitory potency towards hAP-N as compared to Opiorphin-QRFSR native peptide (in words): relative to native peptide
T1 construct: devoid of their respective N-terminal cytosol and transmembrane segment; purchased R&D Systems
T1 sequence (P15144 33-967 limits assumed): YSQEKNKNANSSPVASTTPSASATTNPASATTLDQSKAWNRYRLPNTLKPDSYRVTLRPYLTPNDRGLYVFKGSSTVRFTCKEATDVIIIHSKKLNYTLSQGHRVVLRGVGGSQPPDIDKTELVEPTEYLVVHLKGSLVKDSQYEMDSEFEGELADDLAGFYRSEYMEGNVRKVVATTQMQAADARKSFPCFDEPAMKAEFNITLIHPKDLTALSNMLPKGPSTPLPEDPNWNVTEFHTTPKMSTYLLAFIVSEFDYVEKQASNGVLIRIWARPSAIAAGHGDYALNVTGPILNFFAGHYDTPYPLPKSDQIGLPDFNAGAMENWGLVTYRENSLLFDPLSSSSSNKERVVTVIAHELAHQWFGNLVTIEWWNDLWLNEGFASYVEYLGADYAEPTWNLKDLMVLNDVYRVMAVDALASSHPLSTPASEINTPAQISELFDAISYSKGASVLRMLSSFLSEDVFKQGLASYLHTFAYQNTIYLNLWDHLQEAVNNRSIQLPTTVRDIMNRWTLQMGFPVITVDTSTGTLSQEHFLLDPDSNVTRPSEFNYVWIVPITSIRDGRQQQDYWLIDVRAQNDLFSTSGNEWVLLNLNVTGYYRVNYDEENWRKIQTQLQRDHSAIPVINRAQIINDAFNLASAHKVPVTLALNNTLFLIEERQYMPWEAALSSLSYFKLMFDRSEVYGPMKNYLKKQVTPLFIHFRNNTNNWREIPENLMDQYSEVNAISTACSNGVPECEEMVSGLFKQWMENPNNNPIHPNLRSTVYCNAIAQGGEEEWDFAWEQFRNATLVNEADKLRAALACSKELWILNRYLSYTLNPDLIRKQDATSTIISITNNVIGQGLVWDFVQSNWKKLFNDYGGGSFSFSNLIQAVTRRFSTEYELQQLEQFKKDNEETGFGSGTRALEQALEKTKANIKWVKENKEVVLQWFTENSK
Description: Formal kinetic analysis was performed for each assay using real-time fluorescence monitoring of specific substrate hydrolysis.
Recombinant human NEP and recombinant human AP-N (devoid of their respective N-terminal cytosol and transmembrane segment) that were purchased from R&D Systems, were used as pure source of peptidase.
FRET is the distance-dependant transfer of energy from a donor fluorophore (Abz=ortho-aminobenzoyl or Mca=7-methoxycoumarin-4-yl-acetyl) to an acceptor fluorophore (DnpOH=2,4-dinitrophenyl or EDDnp=2,4-dinitrophenyl ethylenediamine). • L-alanine-Mca, Ala-Mca, a fluorogenic substrate for measuring aminopeptidase activity was purchased from Sigma.
(§1) According to conditions of initial velocity measurement: the time, pH and temperature of incubation as well as enzyme and substrate concentrations were defined for each assay. Hydrolysis of substrates was measured by real-time monitoring their metabolism rate by the two peptidases in the presence and absence of tested inhibitory compound (concentrations ranging from 1 to 50 μM). These were added to the preincubation medium. The background rate of substrate autolysis representing the fluorescent signal obtained in the absence of enzyme was subtracted to calculate the initial velocities in RFU (Relative Fluorescent Unit)/min.
Measurement of AP-N-Ectopeptidase Activity Using Ala-Mca Substrate.
Using black half-area 96 well microplate the standard reaction consisted of enzyme (4 ng) in 100 mM Tris-HCl pH 7.0 (100 μl final volume).
(§2) Compounds were tested in triplicate at 50 μM final concentration.

[2] = biological target: T2, human NEP (Homo sapiens, UniProt P08473); assay: Screening of Opiorphin peptide-derivatives on hNEP (endopeptidase and carboxydipeptidase activities); format: biochemical; conditions: for inhibitory preference / dual inhibition, human NEP versus human AP-N (in words): hNEP endopeptidase and carboxydipeptidase activities versus hAP-N; for inhibitory potency towards hNEP as compared to Opiorphin-QRFSR native peptide (in words): relative to native peptide; for inhibitory potency towards human NEP (in words): screening, 50 μM final concentration
T2 construct: devoid of their respective N-terminal cytosol and transmembrane segment; purchased R&D Systems
T2 sequence (P08473 52-750 limits assumed): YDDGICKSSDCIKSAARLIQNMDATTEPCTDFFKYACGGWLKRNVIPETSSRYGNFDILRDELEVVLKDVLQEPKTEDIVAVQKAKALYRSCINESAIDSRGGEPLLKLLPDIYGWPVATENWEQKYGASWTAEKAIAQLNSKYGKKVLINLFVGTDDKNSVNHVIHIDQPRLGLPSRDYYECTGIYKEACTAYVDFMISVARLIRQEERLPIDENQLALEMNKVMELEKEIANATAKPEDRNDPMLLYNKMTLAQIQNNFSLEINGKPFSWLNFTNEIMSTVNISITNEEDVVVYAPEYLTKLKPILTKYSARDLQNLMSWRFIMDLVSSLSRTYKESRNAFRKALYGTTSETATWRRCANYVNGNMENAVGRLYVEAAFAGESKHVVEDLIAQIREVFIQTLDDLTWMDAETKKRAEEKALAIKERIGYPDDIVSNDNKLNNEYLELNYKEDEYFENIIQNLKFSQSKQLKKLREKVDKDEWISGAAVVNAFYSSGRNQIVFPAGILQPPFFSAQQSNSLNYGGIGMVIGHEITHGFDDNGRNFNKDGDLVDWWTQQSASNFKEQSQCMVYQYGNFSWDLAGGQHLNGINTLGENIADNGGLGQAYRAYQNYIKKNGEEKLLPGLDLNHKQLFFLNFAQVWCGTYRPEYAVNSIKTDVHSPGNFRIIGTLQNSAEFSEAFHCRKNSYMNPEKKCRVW
Description: as §1
([…] successive measures) by using a fluorimeter microplate reader (monochromator Infinite 200-Tecan) at 320 nm and 420 nm excitation and emission wavelengths, respectively.
Using black half-area 96 well microplate, the standard reaction consisted of enzyme (2.5 ng) in 100 mM Tris-HCl pH 6.5 containing 50 mM NaCl (100 μl final volume). The substrate (4 μM final concentration) was added after preincubation for 10 min and the kinetics of appearance of the fluorescent signal (RFU) was directly analyzed for 40 min at 28° C. (2.3 min-interval successive measures) by using the fluorimeter reader at 320 nm excitation and 420 nm emission wavelengths.
In addition, the intramolecularly quenched fluorogenic peptide, Mca-BK2 (10 μM), was submitted to hydrolysis by 5 ng rhNEP under the same experimental conditions as those described behind.
as §2

[3] = biological target: T3, membrane-bound human NEP expressed by LNCaP epithelial cells (Homo sapiens, UniProt P08473); assay: Substance P cleavage by membrane-bound hNEP (human cell membranes); format: biochemical; conditions: fold increase, same test
T3 construct: endogenous in cells; host or cells: LNCaP epithelial cells (membranes)
T3 sequence (P08473 whole entry): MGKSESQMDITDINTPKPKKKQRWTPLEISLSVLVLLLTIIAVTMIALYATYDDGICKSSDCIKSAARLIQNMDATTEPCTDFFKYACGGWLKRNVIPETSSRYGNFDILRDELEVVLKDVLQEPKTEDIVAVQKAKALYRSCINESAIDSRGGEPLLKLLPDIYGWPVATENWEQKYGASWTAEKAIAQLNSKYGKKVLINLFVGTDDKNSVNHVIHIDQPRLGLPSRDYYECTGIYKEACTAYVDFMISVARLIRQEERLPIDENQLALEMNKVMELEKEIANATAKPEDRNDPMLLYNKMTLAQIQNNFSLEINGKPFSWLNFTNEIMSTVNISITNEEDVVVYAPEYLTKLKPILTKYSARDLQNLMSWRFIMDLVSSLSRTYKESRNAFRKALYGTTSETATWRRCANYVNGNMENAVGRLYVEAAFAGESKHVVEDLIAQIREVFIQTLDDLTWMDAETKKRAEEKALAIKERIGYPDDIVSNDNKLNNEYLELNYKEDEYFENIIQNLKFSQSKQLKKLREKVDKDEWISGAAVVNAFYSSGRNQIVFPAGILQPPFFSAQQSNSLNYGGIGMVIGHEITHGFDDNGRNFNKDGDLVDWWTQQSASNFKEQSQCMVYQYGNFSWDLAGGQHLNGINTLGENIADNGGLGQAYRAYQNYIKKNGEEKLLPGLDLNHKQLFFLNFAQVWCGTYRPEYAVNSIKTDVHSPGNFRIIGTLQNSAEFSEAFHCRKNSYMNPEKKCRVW

[4] = biological target: T4, Recombinant human AP-N (aminopeptidase N, EC 3.4.11.2), devoid of its N-terminal cytosol and transmembrane … (human, UniProt P15144 33-967); assay: cell-based or functional assay
T4 sequence (P15144 33-967): as the sequence (P15144 33-967 limits assumed) above

[5] = biological target: Recombinant human NEP (neutral endopeptidase, EC 3.4.24.11), devoid of its N-terminal cytosol and … (human, UniProt P08473 52-750); assay: cell-based or functional assay
Recombinant human NEP (neutral endopeptidase, EC 3.4.24.11), devoid of its N-terminal cytosol and …, sequence (P08473 52-750): as the sequence (P08473 52-750 limits assumed) above

[6] = biological target: T4, Recombinant human AP-N (aminopeptidase …); assay: cell-based or functional assay; remark: listed apart in the source

Molecule: QRGPR (H-QRGPR-OH)
inhibitory potency towards hAP-N as compared to Opiorphin-QRFSR native peptide (in words) [1]: equivalent inhibitory potency
inhibitory preference / dual inhibition, human NEP versus human AP-N (in words) [2]: inhibitory preference for human AP-N
inhibitory potency towards hNEP as compared to Opiorphin-QRFSR native peptide (in words) [2]: weak inhibitory potency
inhibitory potency towards human NEP (in words) [2]: weak inhibitory potency

Molecule: N=C(N)NCCC[C@H](NC(=O)[C@H](CO)NC(=O)[C@H](Cc1ccccc1)NC(=O)[C@H](CCCNC(=N)N)NC(=O)[C@H](CCC(N)=O)NC(=O)[C@@H](N)CS)C(=O)O [CQRFSR]
reinforced inhibitory potency towards hNEP compared to QRFSR native peptide ([2]; fold increase): 5 fold
inhibitory preference / dual inhibition, human NEP versus human AP-N (in words) [2]: potent dual inhibitors

Molecule: QRFPR
inhibitory potency towards hAP-N as compared to Opiorphin-QRFSR native peptide (in words) [1]: equivalent inhibitory potency
inhibitory preference / dual inhibition, human NEP versus human AP-N (in words) [2]: inhibitory preference for human AP-N
inhibitory potency towards hNEP as compared to Opiorphin-QRFSR native peptide (in words) [2]: weak inhibitory potency
inhibitory potency towards human NEP (in words) [2]: weak inhibitory potency

Molecule: N=C(N)NCCC[C@H](NC(=O)[C@H](CO)NC(=O)[C@H](Cc1ccccc1)NC(=O)[C@H](CCCNC(=N)N)NC(=O)[C@H](CCC(N)=O)NC(=O)[C@@H](N)CSSC[C@H](N)C(=O)N[C@@H](CCC(N)=O)C(=O)N[C@@H](CCCNC(=N)N)C(=O)N[C@@H](Cc1ccccc1)C(=O)N[C@@H](CO)C(=O)N[C@@H](CCCNC(=N)N)C(=O)O)C(=O)O [[CQRFSR]2]
increase inhibitory potency towards hNEP-Endo and CarboxyDi-peptidase activities compared to CQRFSR monomer peptide ([2]; fold increase): at least 2 fold

Molecule: N=C(N)NCCC[C@H](NC(=O)[C@H](CO)NC(=O)[C@H](Cc1ccccc1)NC(=O)[C@H](CCCNC(=N)N)NC(=O)[C@H](CCC(N)=O)NC(=O)CCCCCCCCCCCCNC(=O)[C@@H](N)Cc1ccc(O)cc1)C(=O)O [Y-[PE12]QRFSR, Y—(—HN—(CH2)12—CO—)-QRFSR]
inhibitory preference / dual inhibition, human NEP versus human AP-N (in words) ([2]; listed as NH2-Y(PE12)QRFSR—COOH): potent dual inhibitors
inhibitory preference / dual inhibition, human NEP versus human AP-N (in words) ([2]; listed as NH2-Y—(C12-polyethylene)QRFSR—COOH): inhibitory preference for human NEP endopeptidase activity
inhibitory preference / dual inhibition, human NEP versus human AP-N (in words) ([2]; listed as Y—(C12-polyethylene)QRFSR): inhibitory preference for human NEP endopeptidase activity

Molecule: dR-dS-dF-dR-dQ ([dR][dS][dF][dR][dQ]) [NH2-dRdSdFdRdQ-COOH]
inhibitory potency towards human AP-N (in words) ([1]; screening, 50 μM final concentration): did not display significant inhibitory activity
inhibitory preference / dual inhibition, human NEP versus human AP-N (in words) [2]: preference for AP-N activity
inhibitory potency towards human NEP (in words) [2]: did not display significant inhibitory activity

Molecule: QKFSR
inhibitory potency towards hNEP as compared to Opiorphin-QRFSR native peptide (in words) [2]: light reduction in inhibitory potency

The remaining lines, values ahead:

inhibitory potency towards hNEP as compared to Opiorphin-QRFSR native peptide (in words) [2]: equivalent inhibitory potency
Molecule: QRFSK (H-QRFSK-OH)

increase inhibitory potency compared to Opiorphin native peptide, Substance P test [3]: at least 5 fold
Molecule: CCCCCCCC(=O)OC[C@H](NC(=O)[C@H](Cc1ccccc1)NC(=O)[C@H](CCCNC(=N)N)NC(=O)[C@H](CCC(N)=O)NC(=O)CCCCCCNC(=O)[C@@H](N)CS)C(=O)N[C@@H](CCCNC(=N)N)C(=O)O [C-[PE6]-QRFS[O-C8]R, C—(—HN—(CH2)6—CO—)-QRF—S(O-octanoyl)-R]

inhibitory potency towards hAP-N as compared to Opiorphin-QRFSR native peptide (in words) [1]: equivalent inhibitory potency
inhibitory preference / dual inhibition, human NEP versus human AP-N (in words) [2]: inhibitory preference for human AP-N
inhibitory potency towards hNEP as compared to Opiorphin-QRFSR native peptide (in words) [2]: weak inhibitory potency
inhibitory potency towards human NEP (in words) [2]: weak inhibitory potency
Molecule: QHNPR

IC50, µM towards hAP-N (Ala-AMC cleavage) [4]: 0.8 µM
IC50, µM towards hNEP-Endopeptidase (Abz-dR-G-L-EDDnp cleavage) [5]: 40 µM
Molecule: H-C[Ahx]QRFSR-OH [NH2-C-(C6-polyethylene)QRFSR-COOH]

fold decrease in inhibitory potency compared to Opiorphin-QRFSR native peptide [6]: > 10 fold
Molecule: H-QKFSR-OH [NH2-QKFSR-COOH]

IC50, µM towards hAP-N (Ala-AMC cleavage) [4]: 0.8 µM
Molecule: H-C[12Ado]QRFSR-OH [NH2-C-(C12-polyethylene)QRFSR-COOH]

fold decrease in inhibitory potency compared to Opiorphin-QRFSR native peptide [6]: 10 fold
Molecule: H-QRFSK-OH [NH2-QRFSK-COOH]
